B1: IDUA (protein, UniProt P35475 28-653, looked up)
Alpha-L-iduronidase: APHLVHVDAARALWPLRRFWRSTGFCPPLPHSQADQYVLSWDQQLNLAYVGAVPHRGIKQVRTHWLLELVTTRGSTGRGLSYNFTHLDGYLDLLRENQLLPGFELMGSASGHFTDFEDKQQVFEWKDLVSSLARRYIGRYGLAHVSKWNFETWNEPDHHDFDNVSMTMQGFLNYYDACSEGLRAASPALRLGGPGDSFHTPPRSPLSWGLLRHCHDGTNFFTGEAGVRLDYISLHRKGARSSISILEQEKVVAQQIRQLFPKFADTPIYNDEADPLVGWSLPQPWRADVTYAAMVVKVIAQHQNLLLANTTSAFPYALLSNDNAFLSYHPHPFAQRTLTARFQVNNTRPPHVQLLRKPVLTAMGLLALLDEEQLWAEVSQAGTVLDSNHTVGVLASAHRPQGPADAWRAAVLIYASDDTRAHPNRSVAVTLRLRGVPPGPGLVYVTRYLDNGLCSPDGEWRRLGRPVFPTAEQFRRMRAAEDPVAAAPRPLPAGGRLTLRPALRLPSLLLVHVCARPEKPPGQVTRLRALPLTQGQLVLVWSDEHVGSKCLWTYEIQFSQDGKAYTPVSRKPSTFNLFVFSPDTGAVSGSYRVRALDYWARPGPFSDPVPYLEVPVPRGPPSPGNP
B2: CEACAM5 (protein, UniProt P06731 35-685, looked up)
Cell adhesion molecule CEACAM5: KLTIESTPFNVAEGKEVLLLVHNLPQHLFGYSWYKGERVDGNRQIIGYVIGTQQATPGPAYSGREIIYPNASLLIQNIIQNDTGFYTLHVIKSDLVNEEATGQFRVYPELPKPSISSNNSKPVEDKDAVAFTCEPETQDATYLWWVNNQSLPVSPRLQLSNGNRTLTLFNVTRNDTASYKCETQNPVSARRSDSVILNVLYGPDAPTISPLNTSYRSGENLNLSCHAASNPPAQYSWFVNGTFQQSTQELFIPNITVNNSGSYTCQAHNSDTGLNRTTVTTITVYAEPPKPFITSNNSNPVEDEDAVALTCEPEIQNTTYLWWVNNQSLPVSPRLQLSNDNRTLTLLSVTRNDVGPYECGIQNELSVDHSDPVILNVLYGPDDPTISPSYTYYRPGVNLSLSCHAASNPPAQYSWLIDGNIQQHTQELFISNITEKNSGLYTCQANNSASGHSRTTVKTITVSAELPKPSISSNNSKPVEDKDAVAFTCEPEAQNTTYLWWVNGQSLPVSPRLQLSNGNRTLTLFNVTRNDARAYVCGIQNSVSANRSDPVTLDVLYGPDTPIISPPDSSYLSGANLNLSCHSASNPSPQYSWRINGIPQQHTQVLFIAKITPNNNGTYACFVSNLATGRNNSIVKSITVSASGTSPGLSA
B3: NCF2 (protein, UniProt P19878 1-526, looked up)
Neutrophil cytosol factor 2: MSLVEAISLWNEGVLAADKKDWKGALDAFSAVQDPHSRICFNIGCMYTILKNMTEAEKAFTRSINRDKHLAVAYFQRGMLYYQTEKYDLAIKDLKEALIQLRGNQLIDYKILGLQFKLFACEVLYNIAFMYAKKEEWKKAEEQLALATSMKSEPRHSKIDKAMECVWKQKLYEPVVIPVGKLFRPNERQVAQLAKKDYLGKATVVASVVDQDSFSGFAPLQPQAAEPPPRPKTPEIFRALEGEAHRVLFGFVPETKEELQVMPGNIVFVLKKGNDNWATVMFNGQKGLVPCNYLEPVELRIHPQQQPQEESSPQSDIPAPPSSKAPGRPQLSPGQKQKEEPKEVKLSVPMPYTLKVHYKYTVVMKTQPGLPYSQVRDMVSKKLELRLEHTKLSYRPRDSNELVPLSEDSMKDAWGQVKNYCLTLWCENTVGDQGFPDEPKESEKADANNQTTEPQLKKGSQVEALFSYEATQPEDLEFQEGDIILVLSKVNEEWLEGECKGKVGIFPKVFVEDCATTDLESTRREV
B4: PRELP (protein, UniProt P51888 21-382, looked up)
Prolargin: QPTRRPRPGTGPGRRPRPRPRPTPSFPQPDEPAEPTDLPPPLPPGPPSIFPDCPRECYCPPDFPSALYCDSRNLRKVPVIPPRIHYLYLQNNFITELPVESFQNATGLRWINLDNNRIRKIDQRVLEKLPGLVFLYMEKNQLEEVPSALPRNLEQLRLSQNHISRIPPGVFSKLENLLLLDLQHNRLSDGVFKPDTFHGLKNLMQLNLAHNILRKMPPRVPTAIHQLYLDSNKIETIPNGYFKSFPNLAFIRLNYNKLTDRGLPKNSFNISNLLVLHLSHNRISSVPAINNRLEHLYLNNNSIEKINGTQICPNDLVAFHDFSSDLENVPHLRYLRLDGNYLKPPIPLDLMMCFRLLQSVVI
B5: SIRPB1 (protein, UniProt O00241 30-398, looked up)
Signal-regulatory protein …: EDELQVIQPEKSVSVAAGESATLRCAMTSLIPVGPIMWFRGAGAGRELIYNQKEGHFPRVTTVSELTKRNNLDFSISISNITPADAGTYYCVKFRKGSPDDVEFKSGAGTELSVRAKPSAPVVSGPAVRATPEHTVSFTCESHGFSPRDITLKWFKNGNELSDFQTNVDPAGDSVSYSIHSTARVVLTRGDVHSQVICEIAHITLQGDPLRGTANLSEAIRVPPTLEVTQQPMRAENQANVTCQVSNFYPRGLQLTWLENGNVSRTETASTLIENKDGTYNWMSWLLVNTCAHRDDVVLTCQVEHDGQQAVSKSYALEISAHQKEHGSDITHEAALAPTAPLLVALLLGPKLLLVVGVSAIYICWKQKA
B6: SIRT2 (protein, UniProt Q8IXJ6 2-389, looked up)
NAD-dependent protein …: AEPDPSHPLETQAGKVQEAQDSDSDSEGGAAGGEADMDFLRNLFSQTLSLGSQKERLLDELTLEGVARYMQSERCRRVICLVGAGISTSAGIPDFRSPSTGLYDNLEKYHLPYPEAIFEISYFKKHPEPFFALAKELYPGQFKPTICHYFMRLLKDKGLLLRCYTQNIDTLERIAGLEQEDLVEAHGTFYTSHCVSASCRHEYPLSWMKEKIFSEVTPKCEDCQSLVKPDIVFFGESLPARFFSCMQSDFLKVDLLLVMGTSLQVQPFASLISKAPLSTPRLLINKEKAGQSDPFLGMIMGLGGGMDFDSKKAYRDVAWLGECDQGCLALAELLGWKKELEDLVRREHASIDAQSGAGVPNPSTSASPKKSPPPAKDEARTTEREKPQ
B7: CX3CL1 (protein, UniProt P78423 25-397, looked up)
Fractalkine: QHHGVTKCNITCSKMTSKIPVALLIHYQQNQASCGKRAIILETRQHRLFCADPKEQWVKDAMQHLDRQAAALTRNGGTFEKQIGEVKPRTTPAAGGMDESVVLEPEATGESSSLEPTPSSQEAQRALGTSPELPTGVTGSSGTRLPPTPKAQDGGPVGTELFRVPPVSTAATWQSSAPHQPGPSLWAEAKTSEAPSTQDPSTQASTASSPAPEENAPSEGQRVWGQGQSPRPENSLEREEMGPVPAHTDAFQDWGPGSMAHVSVVPVSSEGTPSREPVASGSWTPKAEEPIHATMDPQRLGVLITPVPDAQAATRRQAVGLLAFLGLLFCLGVAMFTYQSLQGCPRKMAGEMAEGLRYIPRSCGSNSYVLVPV
B8: SLITRK2 (protein, UniProt Q9H156 22-845, looked up)
SLIT and NTRK-like protein 2: RKTAKDICKIRCLCEEKENVLNINCENKGFTTVSLLQPPQYRIYQLFLNGNLLTRLYPNEFVNYSNAVTLHLGNNGLQEIRTGAFSGLKTLKRLHLNNNKLEILREDTFLGLESLEYLQADYNYISAIEAGAFSKLNKLKVLILNDNLLLSLPSNVFRFVLLTHLDLRGNRLKVMPFAGVLEHIGGIMEIQLEENPWNCTCDLLPLKAWLDTITVFVGEIVCETPFRLHGKDVTQLTRQDLCPRKSASDSSQRGSHADTHVQRLSPTMNPALNPTRAPKASRPPKMRNRPTPRVTVSKDRQSFGPIMVYQTKSPVPLTCPSSCVCTSQSSDNGLNVNCQERKFTNISDLQPKPTSPKKLYLTGNYLQTVYKNDLLEYSSLDLLHLGNNRIAVIQEGAFTNLTSLRRLYLNGNYLEVLYPSMFDGLQSLQYLYLEYNVIKEIKPLTFDALINLQLLFLNNNLLRSLPDNIFGGTALTRLNLRNNHFSHLPVKGVLDQLPAFIQIDLQENPWDCTCDIMGLKDWTEHANSPVIINEVTCESPAKHAGEILKFLGREAICPDSPNLSDGTVLSMNHNTDTPRSLSVSPSSYPELHTEVPLSVLILGLLVVFILSVCFGAGLFVFVLKRRKGVPSVPRNTNNLDVSSFQLQYGSYNTETHDKTDGHVYNYIPPPVGQMCQNPIYMQKEGDPVAYYRNLQEFSYSNLEEKKEEPATPAYTISATELLEKQATPREPELLYQNIAERVKELPSAGLVHYNFCTLPKRQFAPSYESRRQNQDRINKTVLYGTPRKCFVGQSKPNHPLLQAKPQSEPDYLEVLEKQTAISQL
B9: HO-1 (protein, UniProt P09601 1-288, looked up)
Heme oxygenase 1: MERPQPDSMPQDLSEALKEATKEVHTQAENAEFMRNFQKGQVTRDGFKLVMASLYHIYVALEEEIERNKESPVFAPVYFPEELHRKAALEQDLAFWYGPRWQEVIPYTPAMQRYVKRLHEVGRTEPELLVAHAYTRYLGDLSGGQVLKKIAQKALDLPSSGEGLAFFTFPNIASATKFKQLYRSRMNSLEMTPAVRQRVIEEAKTAFLLNIQLFEELQELLTHDTKDQSPSRAPGLRQRASNKVQDSAPVETPRGKPPLNTRSQAPLLRWVLTLSFLVATVAVGLYAM
B10: VSIG2 (protein, UniProt Q96IQ7 24-327, looked up)
V-set and immunoglobulin …: VEVKVPTEPLSTPLGKTAELTCTYSTSVGDSFALEWSFVQPGKPISESHPILYFTNGHLYPTGSKSKRVSLLQNPPTVGVATLKLTDVHPSDTGTYLCQVNNPPDFYTNGLGLINLTVLVPPSNPLCSQSGQTSVGGSTALRCSSSEGAPKPVYNWVRLGTFPTPSPGSMVQDEVSGQLILTNLSLTSSGTYRCVATNQMGSASCELTLSVTEPSQGRVAGALIGVLLGVLLLSVAAFCLVRFQKERGKKPKETYGGSDLREDAIAPGISEHTCMRADSSKGFLERPSSASTVTTTKSKLPMVV

The molecules below were run on plasma proteins (assay: Plasma proteins modulated between baseline and day 28 in responders (CR, VGPR, PR; n = 19), Example 6 (Table 13)). Conditions: plasma protein (OLINK NPX); responders (CR, VGPR, PR; n = 19); itacitinib 200 mg or 300 mg QD with corticosteroids; day 28 vs baseline.
Format: in vivo, human
In short: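 Longitudinal comparison, day 28 versus baseline, with steroid-naive (N=10) and steroid-refractory (N=18) patients combined. Proteins measured by OLINK proximity extension, log2 normalized protein expression. Differences tested by t tests, ANOVA, Pearson correlation, P<0.05 significant.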

Question: For B1, which “Fold Change, Decreased Expression from Baseline to Day 28” value (“Fold Change, Decreased Expression” below) is on record?
Answer: −1.3887

Question: Which “Fold Change, Increased Expression from Baseline to Day 28” value (“Fold Change, Increased Expression” below) does the source give for B2 here?
Answer: 1.6422

Question: B3 was tested. Which “Fold Change, Decreased Expression” value did it give?
Answer: −2.4951

Question: Which “Fold Change, Increased Expression” value does the source give for B4 here?
Answer: 1.1833

Question: B5 was tested. Which “Fold Change, Decreased Expression” value did it give?
Answer: −1.3991

Question: B6 was tested. Which “Fold Change, Decreased Expression” value did it give?
Answer: −1.6014

Question: For B7, which “Fold Change, Increased Expression” value is on record?
Answer: 1.5454

Question: B8 was tested. Which “Fold Change, Increased Expression” value did it give?
Answer: 1.2986

Question: For B9, which “Fold Change, Increased Expression” value is on record?
Answer: 1.3293

Question: B10 was tested. Which “Fold Change, Increased Expression” value did it give?
Answer: 1.2163

From patent US12099068B2, “Biomarkers for graft-versus-host disease” (Incyte Corporation, priority 2018, dated 2024)
